Source: patent publication US20020026033A1 (BOARD OF REGENTS OF THE UNIVERSITY OF OKLAHOMA, published 2002)
Ends that are not written are not given here. * marks the point of attachment. sulfate = O=S(=O)(O)*

Molecular target: T1, recombinant soluble P-selectin (sPS) (UniProt P16109 42-771, limits assumed)
T1 construct: Neither the residues nor the species are stated
T1 sequence (looked up): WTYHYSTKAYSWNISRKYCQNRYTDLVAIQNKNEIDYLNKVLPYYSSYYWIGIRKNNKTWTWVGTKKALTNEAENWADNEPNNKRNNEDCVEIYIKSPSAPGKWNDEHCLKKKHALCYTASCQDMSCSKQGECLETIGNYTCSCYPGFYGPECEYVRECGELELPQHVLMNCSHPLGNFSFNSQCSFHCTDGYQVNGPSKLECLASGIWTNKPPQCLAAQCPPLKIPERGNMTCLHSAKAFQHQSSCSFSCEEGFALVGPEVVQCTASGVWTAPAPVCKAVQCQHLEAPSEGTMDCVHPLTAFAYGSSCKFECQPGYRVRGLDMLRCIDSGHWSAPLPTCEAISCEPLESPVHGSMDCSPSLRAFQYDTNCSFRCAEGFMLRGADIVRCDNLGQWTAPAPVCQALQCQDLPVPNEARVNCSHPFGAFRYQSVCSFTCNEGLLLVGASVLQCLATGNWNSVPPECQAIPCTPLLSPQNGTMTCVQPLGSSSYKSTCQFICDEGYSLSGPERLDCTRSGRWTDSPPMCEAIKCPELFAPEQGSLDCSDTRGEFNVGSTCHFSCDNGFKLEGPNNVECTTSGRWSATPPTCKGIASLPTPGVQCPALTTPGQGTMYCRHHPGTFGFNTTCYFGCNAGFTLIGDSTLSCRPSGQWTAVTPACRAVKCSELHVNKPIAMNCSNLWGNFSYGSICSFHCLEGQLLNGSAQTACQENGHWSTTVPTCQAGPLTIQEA
Assay: equilibrium gel filtration; fluid-phase sPS (25-1000 pmol) on columns equilibrated with 35SO3-GSP-6 in Ca2+-containing buffer
Experimental: Equilibrium gel filtration experiments were conducted in a Sephadex G-75 column (0.5×10 cm, 2 ml) equilibrated with 4 ml of 20 mM MOPS, pH 7.5, containing 150 mM NaCl, 2 mM CaCl₂, 2 mM MgCl₂, and 0.02% NaN₃ (buffer A), and ³⁵SO₃-GSP-6 (10,000 cpm/ml, specific activity 1700 cpm/pmol). Different amounts of soluble P-selectin (sPS) (25-1000 pmol) (Ushiyama et al., J. Biol. Chem., 268:15229-15237, 1993) were preincubated for 30-60 min in 120 μl of buffer A containing ³⁵SO₃-GSP-6 and applied to the column. Samples were eluted with buffer A (including ³⁵SO₃-GSP-6), and 140 μl fractions were collected at a flow rate of 70 μl/min. Radioactivity in the fractions was determined by liquid scintillation counting. Control experiments to test inhibitors of binding between sPS and GSP-6 were performed using 400 pmol of sPS and 5,000 cpm/ml of ³⁵SO₃-GSP-6. The EDTA concentration was 1 mM in 20 mM MOPS, pH 7.5, 150 mM NaCl, 0.02% NaN₃. Anti-P-selectin monoclonal antibodies (G1 and S12) (800 pmol each) were preincubated for 30 min with sPS in buffer A before ³⁵SO₃-GSP-6 was added. Elution was performed by using buffer A with ³⁵SO₃-GSP-6.
The dissociation constant (Kd) for binding of GSP-6 to soluble sPS was determined using an equilibrium gel filtration technique. […]

B1: glycosulfopeptide-6 (GSP-6) (peptide)
peptide: GQATEY(sulfate)EY(sulfate)LDY(sulfate)DFLPETEPPEML
modifications: also: core-2 O-glycan with sialyl Lewis x on a Thr, position not given here
notes: range 42-63; Synthetic glycosulfopeptide; also called 35SO3-GSP-6; 35SO3-glycosulfopeptide-6
For B1, the Kd was ~350 nM.
